According to PMC12543323, “IFIT1 is rapidly evolving and exhibits disparate antiviral activities across 11 mammalian orders”:

Key:
[1] = target: T1, human IFIT1 R187H (Homo sapiens, UniProt P09914 1-478, R187H); assay: EMSA; 50 mM Tris pH 8.0 ([…], room temperature 20 min; […]; settings: protein: recombinant; tags: N-terminal 6xHis-SUMO (smt3) removed by Ulp1; label: none (SYBR Gold post-stain)
T1 sequence: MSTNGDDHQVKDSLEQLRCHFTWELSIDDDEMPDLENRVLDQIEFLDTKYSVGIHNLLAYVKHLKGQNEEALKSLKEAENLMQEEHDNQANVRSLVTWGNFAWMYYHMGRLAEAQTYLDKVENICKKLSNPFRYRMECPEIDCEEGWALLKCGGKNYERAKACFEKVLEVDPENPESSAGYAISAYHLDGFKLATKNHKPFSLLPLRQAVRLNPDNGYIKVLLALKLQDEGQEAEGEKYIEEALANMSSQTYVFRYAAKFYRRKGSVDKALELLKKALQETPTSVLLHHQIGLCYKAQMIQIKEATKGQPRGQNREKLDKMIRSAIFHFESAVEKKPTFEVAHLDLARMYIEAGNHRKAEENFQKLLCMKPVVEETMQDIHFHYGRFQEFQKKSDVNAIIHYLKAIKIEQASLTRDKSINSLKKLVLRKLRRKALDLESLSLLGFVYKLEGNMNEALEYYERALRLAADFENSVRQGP

[2] = target: T2, human IFIT1 (Homo sapiens, UniProt P09914 1-478); assay: as above; settings: protein: recombinant; tags: N-terminal 6xHis-SUMO (smt3) removed by Ulp1; label: none (SYBR Gold post-stain)
T2 sequence: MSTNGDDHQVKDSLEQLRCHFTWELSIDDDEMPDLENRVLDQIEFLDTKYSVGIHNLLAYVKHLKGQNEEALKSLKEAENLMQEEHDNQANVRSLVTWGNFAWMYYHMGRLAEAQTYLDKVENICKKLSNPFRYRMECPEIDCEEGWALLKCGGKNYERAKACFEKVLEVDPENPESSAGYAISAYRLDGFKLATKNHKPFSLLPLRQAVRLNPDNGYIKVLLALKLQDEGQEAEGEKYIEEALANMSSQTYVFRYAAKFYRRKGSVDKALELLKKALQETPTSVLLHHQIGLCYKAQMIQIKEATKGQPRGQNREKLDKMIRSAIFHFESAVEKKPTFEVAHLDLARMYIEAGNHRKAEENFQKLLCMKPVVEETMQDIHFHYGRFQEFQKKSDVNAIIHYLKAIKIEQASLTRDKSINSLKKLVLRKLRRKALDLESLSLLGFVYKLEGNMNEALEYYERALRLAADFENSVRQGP

B1: Cap0 VEEV TC-83 5' UTR RNA (41 nt) (ssRNA)
RNA: AUAGGCGGCGCAUGAGAGAAGCCCAGACCAAUUACCUACCC
modifications: 5' Cap0 (m7GpppA, no 2'-O methylation; at least 95% by LC/MS)
B1: no binding [1]; binds [2].
